Experiments:
[1] = target: the molecule itself; assay: crystal structure; CYRI-BΔN alone, selenomethionine SAD, 2.37Å, two molecules in the asymmetric unit; crystals at 291K, 0.1M carboxylic acid, 8% MPD_P1K_P33, 0.1M MOPS/HEPES-Na pH 8.0
Rac1Q61L = Rac1Q61L (human, UniProt P63000 1-192, Q61L); assay: SPR; Biacore T200; anti-MBP antibody coupled on a CM5 chip; MBP-CYRI-BΔN captured (~800 RU) on flow-cell 2, MBP (400 RU) on flow-cell 1; Rac1Q61L 0.625μM-80μM as analyte; details: both partners purified

B1: mouse CYRI-B residues 26-324 (CYRI-BΔN) (domain or fragment, UniProt Q921M7 26-324, looked up)
chain: AQPTESEKEIYNQVNVVLKDAEGILEDLQSYRGAGHEIREAIQHPADEKLQEKAWGAVVPLVGKLKKFYEFSQRLEAALRGLLGALTSTPYSPTQHLEREQALAKQFAEILHFTLRFDELKMTNPAIQNDFSYYRRTLSRMRINNVPAEGENEVNNELANRMSLFYAEATPMLKTLSDATTKFVSENKNLPIENTTDCLSTMASVCRVMLETPEYRSRFTNEETVSFCLRVMVGVIILYDHVHPVGAFAKTSKIDMKGCIKVLKDQPPNSVEGLLNALRYTTKHLNDETTSKQIRSMLQ
modifications: selenomethionine labelled
notes: CYRI-B (Fam49B), mouse, residues 26-324 (entire DUF1394 domain; N-terminal residues 1-25 truncated); Two copies in the asymmetric unit of PDB 7AJL; also called Fam49B; source: E. coli B834 (DE3), selenomethionine labelled, purified (HisTrap, TEV, HisTrap flow-through, Superdex S200); not shown: His10, N-terminal, cleaved; MBP, N-terminal, cleaved
binding result [1]: binds

B2: MBP-CYRI-BΔN (domain or fragment)
chain: B1 chain
notes: The purification of the uncleaved MBP fusion used for SPR is not described; source: E. coli BL21 pLysS; not shown: His10, N-terminal, kept; MBP, N-terminal, kept
Kd (Rac1Q61L): 25 µM
